Kd data for 1 molecule are collected here from publication PMC10644352, “Bromodomain Factor 5 as a Target for Antileishmanial Drug Discovery” (ACS Infectious Diseases, 2023).

No end group written: not given here.

Assay [1] addresses T1, Leishmania donovani bromodomain factor 5 (LdBDF5) first bromodomain, recombinant BD5.1 (Leishmania donovani).
T1 construct: L. donovani BDF5 (LDBPK_091320), construct with the first bromodomain; Plasmid from the Structural Genomics Consortium, pET-15-MHL backbone (Addgene plasmid #26092), which encodes a cleavable His-tag; His-tags were not cleaved for BD5.1; Expected mass 15.2 kDa; Monomer by SEC-MALLS; also called LdBDF5 BD5.1; LdBDF5.1; source: E. coli Rosetta2 (DE3) pLysS, purified (IMAC, SEC)
The assay is described as follows: fluorescence polarisation; 800 nM 5-FAM peptide, protein 0-300 μM; 20 mM HEPES, 500 mM NaCl, 1 mg/mL BSA, pH 7.5; 30 min at room temperature; one-site-specific binding fit (two-site for BD5T); n = 3. The conditions noted are these: both partners purified. Background: Polarisation of emitted light reports the rotation of a fluorescent probe.

In assay [2] the target is T2, Leishmania donovani bromodomain factor 5 (LdBDF5) second bromodomain, recombinant BD5.2 (Leishmania donovani).
T2 construct: L. donovani BDF5 (LDBPK_091320), construct with the second bromodomain; His-tags were not cleaved for BD5.2; Expected mass 17.9 kDa; Monomer by SEC-MALLS; also called LdBDF5 BD5.2; source: E. coli Rosetta2 (DE3) pLysS, purified (IMAC, SEC)
The assay is described as above. The note with it: both partners purified.

Usually Kd stands for the equilibrium constant for the complex coming apart.

In the case of AK(Ac)GK(Ac)RSADAK(Ac)SSQK(Ac)R (also: 5-FAM at N-terminus or via ethylene diamine linker at C-terminus) [5-FAM-labeled H4(1-15)K2Ac K4Ac K10Ac K14Ac peptide of L. donovani histone H4], the Kd in assay [1] was 137 µM; in assay [2] it was 353 µM.
